In patent US20190016828A1 one finds FcRn-affinity column retention time, RT (Min) on FcRn affinity column and retention time on FcRn affinity column data, which are given here for 10 substances.

human neonatal Fc-receptor (FcRn) (human), sequence (P55899 24-297 limits assumed, chain 1 of 2): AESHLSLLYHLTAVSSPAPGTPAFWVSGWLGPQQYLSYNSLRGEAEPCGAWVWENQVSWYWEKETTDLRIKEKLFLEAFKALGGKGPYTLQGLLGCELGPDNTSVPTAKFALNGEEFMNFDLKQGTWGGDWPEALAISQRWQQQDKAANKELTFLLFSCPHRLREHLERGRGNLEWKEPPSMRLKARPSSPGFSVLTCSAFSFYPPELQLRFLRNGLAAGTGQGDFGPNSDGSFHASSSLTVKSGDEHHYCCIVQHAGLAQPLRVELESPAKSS
human neonatal Fc-receptor (FcRn) (human), sequence (P61769 21-119 limits assumed, chain 2 of 2, further chain): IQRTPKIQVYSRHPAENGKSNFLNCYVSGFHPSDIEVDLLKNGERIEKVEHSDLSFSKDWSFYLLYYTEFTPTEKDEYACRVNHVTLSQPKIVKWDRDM

The first test concerns the target human neonatal Fc-receptor (FcRn) (human) (UniProt P55899). The experiment in a line: FcRn affinity chromatography.
With “IgG1 Fc-region molecule with L234A/L235A/P329G and symmetric Y436A”, the FcRn-affinity column retention time stood at 41.3 min.

The substance “bispecific antibody (knobs-into-holes), first chain with I253A/H310A/H435A and second chain with H310A” showed an RT (Min) on FcRn affinity column of 0 min.

For the substance “bispecific antibody (knobs-into-holes), first chain with I253A/H310A/H435A and second chain with H435A”, the RT (Min) on FcRn affinity column came out at 0 min.

In turn, “bispecific antibody (knobs-into-holes), first chain with I253A/H310A/H435A and second chain with I253A/H310A/H435A” gave an RT (Min) on FcRn affinity column of 0 min.

A further test shares this target. The experiment in a line: FcRn affinity chromatography, bispecific KiH antibody.
With “bispecific antibody (knobs-into-holes), one chain with H310A”, the retention time on FcRn affinity column came to 48.4 min.

“bispecific antibody (knobs-into-holes), one chain with H310A/H433A/Y436A”: the retention time on FcRn affinity column turned out to be 46.7 min.

Turning to “bispecific antibody (knobs-into-holes), one chain with H435A”, the retention time on FcRn affinity column was found to be 48.8 min.

For the substance “bispecific antibody (knobs-into-holes), one chain with I253A”, the retention time on FcRn affinity column turned out to be 48.8 min.

On to “bispecific antibody (knobs-into-holes), one chain with L251D/L314D/L432D”, for which the retention time on FcRn affinity column is 46.3 min.

For “bispecific antibody (knobs-into-holes), one chain with M252Y/S254T/T256E”, the retention time on FcRn affinity column came out at 56.2 min.
